Source: publication PMC11588112

Tests used:
[1] = target: mumps postfusion F glycoprotein trimer (unstabilized 476-GCN4) (mumps virus); test: negative-stain EM; purified glycoprotein designs alone, 2D class averages
[2] = target: prefusion-stabilized mumps fusion (F) glycoprotein trimer, genotype G (V206C-A223C with 476-GCN4 and 101KRF-101GGG) (mumps virus, genotype G); test: crystal structure
[3] = target: prefusion-stabilized mumps fusion (F) glycoprotein trimer, genotype G (V206C-A223C with 476-GCN4 and 101KRF-101GGG) (mumps virus, genotype G); test: negative-stain EM; purified glycoprotein designs alone, 2D class averages

Row | Substance | stoichiometry N [1] | stoichiometry N [2] | stoichiometry N [3]
1 | mumps postfusion F glycoprotein trimer (unstabilized 476-GCN4) | 3 | – | –
2 | prefusion-stabilized mumps fusion (F) glycoprotein trimer, genotype G (V206C-A223C with 476-GCN4 and 101KRF-101GGG) | – | 3 | 3
